From a protein production outcome set (Wang et al. 2014) come the findings set out here.

This data set can be described thus: label from the status in PepcDB records.
Turning to “MGMLGLDLLKEVPGLLEEIKALPLRLDEERFRFWLQQDYPFVEALYRYQVGLLLEAPQAHRAPLVQALMATVEELDWLLLQGASPSAPVHPVRAGYIALLEEMGRLPYAYRVVFFYFLNGLFLEAWAHHVPEEGPWAELSQHWFAPEFQAVLYDLEVLARGLWEDLDPEVVRTYLRRILEAEKATWSLLL”, the protein production result was “not failed”.

As to “MGNFHATTIFAVHHNGECAMAGDGQVTMGNAVVMKHTARKVRKLFQGKVLAGFAGSVADAFTLFEMFEGKLEEYNGNLQRAAVEMAKQWRGDKMLRQLEAMLIVMDKTTMLLVSGTGEVIEPDDGILAIGSGGNYALSAGRALKQYASEHLTAKQIAKASLEIAGDICVYTNHNIIVEEL”, the protein production entry is given as “not failed”.

As to “MGNFSLFSSFNPEGQHDDVANRWRSPTPMRYIIPNIITILAICAGMSSIRLAFEHRYEAAILMVLLAAILDGADGRIARLMDGSSSFGAQMDSLADVINFGVAPSLIVYSFVLNQAHQVGWIAGLVYCVACCLRLARFNVMLDNTDIPKWQGNYFVGVPAPAGALLLLLPMYLGALGLVPSWSWALFFSLYTVIIAFLLVSRLPVWNGKTINQNLRRDIVVPCMLGIVIYVGFLATYTWHTLLITAVSYMIFLPCSFVAYNKRAALEEKKANIKTLSSS”, the protein production entry is recorded as “failed”.

With “MGNFTFEEMNLMCIYNTGSRTGLIDSLREMRGELAPEETELRELTDSALGNLQAMSDAEFAELELYPDFDQ”, the protein production entry is recorded as “failed”.

With “MGNNKNLHGHLFALTANVMWGLMSPIGKSALQEFSAISVTTFRMVGAAAAFWILSIFCKQEHVDHRDMLKIFFASLFALVFNQGIFIFGLSMTSPIDASIVTTTLPIVTMIVAAIYLKEPITNKKVLGIFVGAMGALILIMSSQAASSGNGSLIGDLLCLVAQISFSIYLTVFKGLSQRYSAVTINKWMFIYASMCYIPFSYQDISVIQWTSIPMVAILQVLYVVLGGSFLAYLCIMTAQKLLRPTVVSMYNYMQPIVATIAAILMGIGSFGWEKGIAITLVFLGVYIVTQSKSKADFEKAGKEL”, the protein production entry is on record as “failed”.

“MGPINLLWLQAAGCGGCTMAILEQGRAGWFAELASFDINLLWHPSVSEATADDVIDLLAAVSAARTPLSVLVVEGAVLRGPNGSGRFNMLGGTGRSMASWISELAPRADYVVAVGSCSAYGGVPAAGHNPTDASGLQFLGTEPGGVLGAAFRSKAGLPVINIAGCAPHPGWIAETLAALALGEFSAAALDSFARPKFFAEHLAHHGCARNEFYEFKASAEAMSQRGCLMEHLGCKATQAVGDCNQRSWNGGGSCTQAGYPCIACTSPGFEAAHNYMTTAKVAGIPVGLPLDMPKAWFVALAALSKSATPKRVRANATADHVVVPPTPSGHRRK”: the protein production result was “failed”.

For “MGPPERPSLGWTPKEADMQSGPQPDEWSSGWKPGDGGAAPLPLSPALSFLLLFPLASALQPTPLPFPELRLVGGPSRCRGRLEVMHSGSWGSVCDDDWDVVDANVVCRQLGCGLALPVPRPLTFGQGRGPIFLDNVECRGQEASLSECGSRGWGVHNCFHYEDVAVLCDEFLHTQPPARKVLTSIAPPTALQNGRGEGSVRLAGGASPCQGRVEILHGGLWGTVCDDDWGLPDAAVVCRQLGCGAALAATTNAFFGYGTGHILLDNVHCEGGEPRLAACQSLGWGVHNCGHHEDAGVLCAATGVGALPSRDTIRFTTAAWASGKKSGRLRLVGGPSPCRGRVEVLYAGGWGTVCDDDWDFADARVACREAGCGPALGATGLGHFGYGRGPVLLDNVGCTGTEARLSDCFHLGWGQHNCGHHEDAGALCAGEAVESDKEAAQAEQAGLRAHKRGSVHARTNNMGPEELGLQVQQDGSETTRMPSPRPRDGHLRLASGTHRCEGRVELFLGQQWGTVCDDAWDLRAAIVLCRQLGCGQALAALGEAHFGPGRGPILLDNVKCRGDESTLLLCSHIRWDVHNCDHSEDASVLCQPL”, the protein production result is given as “failed”.

For “MGPSILKMLTHAKSHKEALMAFSRREFLKSAAAASAASAVGMSVPSQLLAQAQEGEKGWRWDKSVCRFCGTGCGIMVATKNDQIVAVKGDPAAPVNRGLNCIKGYFNAKIMYGADRLTDPLLRVNEKGEFDKQGKFKPVSWKKAFDVMEAQFKRAYNELGPTGIGVFGSGQYTIQEGYMAAKLIKGGFRSNNLDPNARHCMASAVAAFMETFGIDEPAGCYDDIELTDTIITWGANMAEMHPILWARVTDKKLSNPDKVKVINLSTYTNRTSDLADIEIIFTPQTDLAIWNYIAREIVYNHPESIDMEFVKNHCIFTTGFTDIGYGMRTDIKHAKYDPKELDIAAKERSKVLSEAEGVTLRYLGMKAGDVMEMKHNATAGNHWEITFEDFKKALEPYTLDFVAKLAKGNSEESLESFKEKLQKLANLYIEKERKVVSFWTMGMNQHTRGTWVNEQSYMVHFLLGKQAKPGSGAFSLTGQPSACGTAREVGTFSHRLPADMVVANPKHRAVSEKIWKLPEGTLNPKMGAHYMNIMRDLEDGKIKFAWIQVNNPWQNTANANHWIKAAREMDNFIVCSDAYPGISAKVADLILPTAMIYEKWGAYGNAERRTQHWRQQVVPVGNAMPDVWQMAEFSKRFKLKEVWGAKKIDDKLTLPDVLEKAKAMGYSPEDTLFEVLFANSEAKSFKAKDPIGEGFENTEVFGDRRNVAGSDGEVFKGYGFFIHKYLWEEYRRFGNGHGHDLADFDTYHKVRGLKWPVVDGKETQWRFNAKYDPYARKAGSGEFAFYGDAMKELPRGDLLSPKTEEKFKLTNKAKIFFRPYMDPPEMPSSEYPLWLCTGRVLEHWHSGTMTMRVPELYRAVPEALCYMHPEDAKKLGVKQNEAVWVESRRGKVKARVDTRGRNRTPLGLVYVPWFDEKVYINKVCLDATCPISKQTDFKKCAVKVYKA”, the protein production entry is “failed”.

As for “MGQFSLDSISSEISERKSFIGRINDEKLSSFDDVVKQRETKSWRAWRRSKRRRFTRKRHGLLASATAEGSESTVHARLNEEDLTAEIVFEECHVSGGELNDVVRLENEMLDRFYGAGFWRSPSQKDTSSGSL”, the protein production entry is reported as “failed”.

For “MGQLPPRARAFFAAQRPLRVLMPGCGSAADLPPLLAMGHDVLAVDFSEAAIELAARQWPEAAGRLLLADFFQLQMPAFDCLFERAFLCALPVGMRSQYAERVAALIAPGGALAGVFFVADTERGPPFGMQAEALRELLSPWFELEEDLALDESVAVFRNRERWMVWRRRGLEHHHHHH”, the protein production entry is reported as “failed”.

Turning to “MGRDASSYFHLVFFLALTLLAGCSTTGSAPETREAGAGPEELMAAVRANEDRAVLELLSMGVRPDAQARAEQTPLMVAATNGNRRIVRLLLAAGAEVNARSADGNTAVIQAAENGHLAVVRALLAAGANVNVSQGGESLLMKVVASGDLLTAEMLLAAGADVHYRRADGTTALDLARASNNQDLEMLLVQAGAAR”, the protein production entry was “failed”.

Regarding “MGREIFNRRLPDNYNDFSHSMDNAANGHYFLRVASSNYKRPDGKNVRTVRDVIAEVDQNGVVVDEWRLFDILDPYRDVIMKTLDQGAVCLNIDASQSGHTLSEEDLAALDSSDKFGDIVGSGAGRNWAHVNSVDYDSEDDSIIISSRHQSAIIKIGRDKKVKWILGTPAGWKAPFNAAILTPVDSKGQKIACQDSGCEGDFDWTWTQHTAFKIDSKSKGDILYLSAFDNGDGRGLEQPAMQSMKYSRSVIYKIDQKNKTVQQIWQYGKERGNEWFSPVTSITEYQTDKNSVFVYSATAGGAFDLSVGAFTSLPNPYLEEFKWGEKEPAVEMQIHGARGYQAMPFSLTKALTELEHHHHHH”, the protein production entry was “failed”.

For “MGRIIGIDLGTTTSEIAYVKDGKPCIIRNIEEGDEHAIPSVVSIEGDEIKVGKKAKNQILLKPELTVAEVKRVMGTENIIQIQGKEYRPEEISALILKKLKEVAEYFLGEEVEEAVITVPANFNDIQRKATKNAGEIAGFKVERIINEPTAAAMAYGVDNLDKNGNILVYDFGGGTFDVTILEMFNGVLDVKVSRGNNYLGGKDIDNKLIDHVVNEFNKSTGVKLDTSDSRILARLKEGVEEAKKTLSTSKMAEIVLPYISADKDNNPINLEMVLTREEFEFNVKEIIDSTEDIVNEALEDANITDNEIDTVLLVGGSSRIPYVRNMLEKRFKGKIARGVNPDEAVALGASVQAAIKNDIPVGDSGTIIVTDTCNYTLGVALKGGIFDPIIDRDSKLPANVTKRYCTVMDNQTEVLVSVYEGESRYVSDNTLIDEFILSGIPKADTGKEKIDITFTYDLNGILNVSAEILSTGDEISKIMSTKGLSKEEIQDLKEVVSSNENNNELVPWKSANLFKLVEPNFRLAERKIPMLPSADREKLQEIMSDMKDAIVDNDKMALMKLDEELTDFLFDFVN”, the protein production entry is on record as “failed”.

For “MGRLHCTEDPVPEAVGGDMQQLNQLGAQQFSALTEVLFHFLTEQKEVERFLAQLSEFATTNQISLGSLRSIVKSLLLVPNGALKKSLTAKQVQADFITLGLSEEKATYFSEKWKQNTPTLARWAIGQTLMINQLIDMEWKFGVTSGSSELEKVGSIFLQLKLVVKKGNQTKNVYIELTLPQFYSFLHEMERVRTSMECFC”, the protein production result is reported as “failed”.

Regarding “MGRSQATAESYRDSLTIFKNYLVGELGKSISTFQFSDCTKECIYNFREYLLANGSQPSTVNVRVAAIRAYLNYASDMDISVQSVALAILEHHHHHH”, the protein production result is listed as “failed”.

For the sequence “MGSAERFQRLLGDRYELRGVLGRGGMAEVRDGWDTRLARPVAIKLLYPALAADADLRARFEREARAAAALTHPHVVAVHDCGEHAGTPYIVMERLSGATLADEIAAGPLPQERVAELLDQILSALIAAHAAGIVHRDIKPGNILIGHTGQAKLADFGIAKTDGVPHTQAGQILGTMAYLSPQRVTGQPAGFADDLYAVGVVGYEALTGRRPFDRDNPAAMVRAILDDVPVPIASVRSDVAPGLIHVIDMAMAREVAFRYPDAATMRAALTGAEPPTQRVGRRQTKVLAAPLPPIPPPPVLPSPRHWRTRLILAVLGIVSTLILVLVLALARGSSGLTSPTSTPTATTVPPATSAVVPPPVPSTPVPAAVPEEPRGPGRGPGPGPGPGKGKGHEKGHGPKGPKGPPHP”, the protein production entry was “failed”.

With “MGSDISQFSASPAARQHTWTLAAYRYMARKRLGGKTAIDLKSVATKSWDIAPGEATVSPPAIFLPGQLDRVTGWEGKRFYPYVHPAQTMAGGIHTLQGPTRGYLIKDVWLVDGALYKGKASHWLSQKPSTFPTILIDHEIDRAAIYCTLNGNAWFGTWLMEDCPTYALACNEGIPVTTAPSARYPLFTQAPAYEDWLDMKPLRLRSAFFRELVLFDDQSNNRSRHARYRAMGDKLLSHVTHTQHPGVFLLRGGDGDLRLLRNELELAEHLRTTRGFRIVNPLKSDVPSIVAACAGAKVVIGVEGSQLVHGVNVLQAGGCLLTLQPPNRFVSYYKYLTDRDHQHFGFVVGLPEGDGFRIDIDEVERTLDLFPR”, the protein production entry was “failed”.

As to “MGSGAGNFLKVLLRNFDVLAGPVVSLVYPLYASVQAIETQSHADDKQWLTYWVLYSLLTLIELTFAKLIEWLPIWSYMKLILTCWLVIPYFSGAAYVYEHFVRPVFVNPRSINIWYVPKKMDIFRKPDDVLTAAEKYIAENGPDAFEKILSRADKSKRYNKHEYESYETMYGEGYQY”, the protein production entry is recorded as “failed”.
